Laboratory results as given in the Human Domainome abundance scans (Beltran et al. 2025).
± gives the uncertainty stated by the source.

B1: POU domain, class 3, transcription factor 4, residues 280 to 335; numbered along this chain, P49335 (parent)
chain: KKRTSIEVSVKGVLETHFLKCPKPAAQEISSLADSLQLEKEVVRVWFCNRRQKEKR

Variants of: B1
Assay: abundance fitness (aPCA) (normalised: wild type 0, dead -1); higher = more abundant; growth selection in yeast, the domain comes from the species named
Conditions: Homo sapiens
With KKRTSIEVSVKGVLETHFLKCPKPAAQEISSLRDSLQLEKEVVRVWFCNRRQKEKR [A33R] the abundance fitness was -0.667 ± 0.15. With KKRTSIEVSVKGVLETHFLKCPKPAAQEISSLLDSLQLEKEVVRVWFCNRRQKEKR [A33L] the abundance fitness was -0.598 ± 0.13. For KKRTSIEVSVKGVLETHFLKCPKPAAQEISSLVDSLQLEKEVVRVWFCNRRQKEKR [A33V], the abundance fitness was -1.02 ± 0.24. In the case of KKRTSIEVSVKGVLETHFLKCPKPAAQEISSLFDSLQLEKEVVRVWFCNRRQKEKR [A33F], the abundance fitness is reported as -0.773 ± 0.3. Variant KKRTSIEVSVKGVLETHFLKCPKPAAQEISSLKDSLQLEKEVVRVWFCNRRQKEKR [A33K] has an abundance fitness of -0.959 ± 0.41. Variant KKRTSIEVSVKGVLETHFLKCPKPAAQEISSLEDSLQLEKEVVRVWFCNRRQKEKR [A33E] has an abundance fitness of -0.634 ± 0.26. For KKRTSIEVSVKGVLETHFLKCPKPAAQEISSLPDSLQLEKEVVRVWFCNRRQKEKR [A33P], the abundance fitness was -0.907 ± 0.3. Work on KKRTSIEVSVKGVLETHFLKCPKPAAQEISSLWDSLQLEKEVVRVWFCNRRQKEKR [A33W] yielded an abundance fitness of -0.835 ± 0.27. Variant KKRTSIEVSVKGVLETHFLKCPKPAAQEISSLYDSLQLEKEVVRVWFCNRRQKEKR [A33Y] has an abundance fitness of -0.917 ± 0.39. In the case of KKRTSIEVSVKGVLETHFLKCPKPAAQEISSLMDSLQLEKEVVRVWFCNRRQKEKR [A33M], the abundance fitness is reported as -0.836 ± 0.38. Work on KKRTSIEVSVKGVLETHFLKCPKPAAQEISSLIDSLQLEKEVVRVWFCNRRQKEKR [A33I] yielded an abundance fitness of -0.802 ± 0.31. KKRTSIEVSVKGVLETHFLKCPKPAAQEISSLTDSLQLEKEVVRVWFCNRRQKEKR [A33T] gave an abundance fitness of -0.704 ± 0.25. With KKRTSIEVSVKGVLETHFLKCPKPAAQEISSLGDSLQLEKEVVRVWFCNRRQKEKR [A33G] the abundance fitness was -0.853 ± 0.2. In the case of KKRTSIEVSVKGVLETHFLKCPKPAAQEISSLNDSLQLEKEVVRVWFCNRRQKEKR [A33N], the abundance fitness is reported as -0.964 ± 0.38. With KKRTSIEVSVKGVLETHFLKCPKPAAQEISSLDDSLQLEKEVVRVWFCNRRQKEKR [A33D] the abundance fitness was -0.96 ± 0.31. KKRTSIEVSVKGVLETHFLKCPKPAAQEISSLADSLNLEKEVVRVWFCNRRQKEKR [Q37N] showed an abundance fitness of 0.071 ± 0.31. In the case of KKRTSIEVSVKGVLETHFLKCPKPAAQEISSLADSLVLEKEVVRVWFCNRRQKEKR [Q37V], the abundance fitness is reported as -0.923 ± 0.29. With KKRTSIEVSVKGVLETHFLKCPKPAAQEISSLADSLMLEKEVVRVWFCNRRQKEKR [Q37M] the abundance fitness was -0.22 ± 0.32. Work on KKRTSIEVSVKGVLETHFLKCPKPAAQEISSLADSLFLEKEVVRVWFCNRRQKEKR [Q37F] yielded an abundance fitness of -0.615 ± 0.38. Variant KKRTSIEVSVKGVLETHFLKCPKPAAQEISSLADSLRLEKEVVRVWFCNRRQKEKR [Q37R] has an abundance fitness of -0.21 ± 0.17. With KKRTSIEVSVKGVLETHFLKCPKPAAQEISSLADSLDLEKEVVRVWFCNRRQKEKR [Q37D] the abundance fitness was 0.043 ± 0.33. Work on KKRTSIEVSVKGVLETHFLKCPKPAAQEISSLADSLSLEKEVVRVWFCNRRQKEKR [Q37S] yielded an abundance fitness of -0.081 ± 0.2. For KKRTSIEVSVKGVLETHFLKCPKPAAQEISSLADSLCLEKEVVRVWFCNRRQKEKR [Q37C], the abundance fitness was -0.198 ± 0.27. In the case of KKRTSIEVSVKGVLETHFLKCPKPAAQEISSLADSLGLEKEVVRVWFCNRRQKEKR [Q37G], the abundance fitness is reported as 0.177 ± 0.21. In the case of KKRTSIEVSVKGVLETHFLKCPKPAAQEISSLADSLLLEKEVVRVWFCNRRQKEKR [Q37L], the abundance fitness is reported as -0.664 ± 0.29. KKRTSIEVSVKGVLETHFLKCPKPAAQEISSLADSLKLEKEVVRVWFCNRRQKEKR [Q37K] showed an abundance fitness of -0.322 ± 0.48. For KKRTSIEVSVKGVLETHFLKCPKPAAQEISSLADSLALEKEVVRVWFCNRRQKEKR [Q37A], the abundance fitness was -0.437 ± 0.33. In the case of KKRTSIEVSVKGVLETHFLKCPKPAAQEISSLADSLHLEKEVVRVWFCNRRQKEKR [Q37H], the abundance fitness is reported as 0.104 ± 0.22. KKRTSIEVSVKGVLETHFLKCPKPAAQEISSLADSLPLEKEVVRVWFCNRRQKEKR [Q37P] gave an abundance fitness of -0.855 ± 0.33. Variant KKRTSIEVSVKGVLETHFLKCPKPAAQEISSLAKSLQLEKEVVRVWFCNRRQKEKR [D34K] has an abundance fitness of 0.109 ± 0.22. In the case of KKRTSIEVSVKGVLETHFLKCPKPAAQEISSLAHSLQLEKEVVRVWFCNRRQKEKR [D34H], the abundance fitness is reported as 0.069 ± 0.2. Work on KKRTSIEVSVKGVLETHFLKCPKPAAQEISSLAWSLQLEKEVVRVWFCNRRQKEKR [D34W] yielded an abundance fitness of -0.801 ± 0.16. With KKRTSIEVSVKGVLETHFLKCPKPAAQEISSLAASLQLEKEVVRVWFCNRRQKEKR [D34A] the abundance fitness was -0.254 ± 0.13. With KKRTSIEVSVKGVLETHFLKCPKPAAQEISSLAESLQLEKEVVRVWFCNRRQKEKR [D34E] the abundance fitness was -0.172 ± 0.18. In the case of KKRTSIEVSVKGVLETHFLKCPKPAAQEISSLARSLQLEKEVVRVWFCNRRQKEKR [D34R], the abundance fitness is reported as 0.019 ± 0.12. For KKRTSIEVSVKGVLETHFLKCPKPAAQEISSLAISLQLEKEVVRVWFCNRRQKEKR [D34I], the abundance fitness was -0.717 ± 0.32. Work on KKRTSIEVSVKGVLETHFLKCPKPAAQEISSLAQSLQLEKEVVRVWFCNRRQKEKR [D34Q] yielded an abundance fitness of -0.183 ± 0.21. With KKRTSIEVSVKGVLETHFLKCPKPAAQEISSLANSLQLEKEVVRVWFCNRRQKEKR [D34N] the abundance fitness was -0.384 ± 0.21. In the case of KKRTSIEVSVKGVLETHFLKCPKPAAQEISSLALSLQLEKEVVRVWFCNRRQKEKR [D34L], the abundance fitness is reported as -0.528 ± 0.13. For KKRTSIEVSVKGVLETHFLKCPKPAAQEISSLACSLQLEKEVVRVWFCNRRQKEKR [D34C], the abundance fitness was -0.531 ± 0.37. With KKRTSIEVSVKGVLETHFLKCPKPAAQEISSLAGSLQLEKEVVRVWFCNRRQKEKR [D34G] the abundance fitness was -0.537 ± 0.15. For KKRTSIEVSVKGVLETHFLKCPKPAAQEISSLAMSLQLEKEVVRVWFCNRRQKEKR [D34M], the abundance fitness was -0.479 ± 0.21. Variant KKRTSIEVSVKGVLETHFLKCPKPAAQEISSLAYSLQLEKEVVRVWFCNRRQKEKR [D34Y] has an abundance fitness of -0.793 ± 0.31. KKRTSIEVSVKGVLETHFLKCPKPAAQEISSLASSLQLEKEVVRVWFCNRRQKEKR [D34S] showed an abundance fitness of -0.317 ± 0.13. For KKRTSIEVSVKGVLETHFLKCPKPAAQEISSLAPSLQLEKEVVRVWFCNRRQKEKR [D34P], the abundance fitness was -0.843 ± 0.29. KKRTSIEVSVKGVLETHFLKCPKPAAQEISSLATSLQLEKEVVRVWFCNRRQKEKR [D34T] showed an abundance fitness of -0.472 ± 0.19. Work on KKRTSIEVSVKGVLETHFLKCPKPAAQEISSLADSLQLCKEVVRVWFCNRRQKEKR [E39C] yielded an abundance fitness of -0.411 ± 0.19.
